From US20250011433A1 (GLIKNIK, published 2025)
Like-named read-outs stand apart in the source and are kept apart here.

T1: FcγRIIb (UniProt P31994 46-217, limits assumed)
T1 sequence (looked up): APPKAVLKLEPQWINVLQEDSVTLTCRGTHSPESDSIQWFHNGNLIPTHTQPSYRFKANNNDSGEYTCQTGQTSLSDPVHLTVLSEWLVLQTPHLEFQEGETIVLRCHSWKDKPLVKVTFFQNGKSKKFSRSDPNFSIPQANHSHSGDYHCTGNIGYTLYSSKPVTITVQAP


Experiments:
FcγRI [1] = molecular target: T2, FcγRI (UniProt P12314 16-288); assay: BLI (Octet)
T2 construct: also called CD64
Procedure: (§1) Binding of complement-preferential stradomers or parent stradomer G045c to FcγRI, FcγRIIb, FcγRIIIa, FcγRIIa, or FcRn was assessed. RU values of dissociation were measured by biolayer interferometry using a ForteBio Octet instrument. His-tagged receptor proteins were bound to the sensor tip in 1× kinetic analysis buffer from ForteBio after which the on rate of the receptor/protein was measured by transferring the sensor tip to a 1× kinetics buffer containing the purified stradomer of choice. Off rate was measured by transferring the sensor tip to a 1× kinetics buffer, and RU value was calculated from the measured maximum binding using the ForteBio software. Biolayer interferometry detects the binding between a ligand immobilized on the biosensor tip surface and an analyte in solution. When binding occurs it produces an increase in optical thickness at the biosensor tip, which results in a wavelength shift (detected as a response unit of “RU”). The maximum binding level (RU max) is the maximum possible amount of sample binding at equilibrium that saturates the amount of ligand on the sensor surface. The RU 300 is the residual sample binding after 300 seconds of dissociation and is useful to characterize the rate of dissociation of the test article from the test ligand.

FcγRIIb [2] = molecular target: T1, FcγRIIb; assay: BLI (Octet)
Procedure: as §1

C1q [3] = molecular target: T3, C1q (UniProt P02745 23-245; P02746 28-253; P02747 29-245); assay: ELISA on coated C1q
T3 construct: bought C1q coated on ELISA plates at 1 µg/ml; also called complement C1q; complement factor C1q
Procedure: (§2) For C1q binding, 96 well plates were coated with C1q (Sigma Cat #: C1740 1 μg/ml) overnight in PBS. After coating, plates were washed 3 times with standard wash buffer (iX PBS+0.05% Tween 20) and blocked with blocking buffer (1% BSA+1× PBS+0.05% Tween 20) for 2 hours at RT. Following blocking, plates were incubated with compound diluted in blocking buffer 100 μL/well and washed 3 times with standard washing buffer. C1q-bound compound was detected by incubation with 1:5000 biotinylated mouse anti-human IgG1(Cat #555869, BD Biosciences) and Streptavidin-HRP (Cat #: 7100-05 Southern Biotech) (100 μl/well) for 1 hour at room temperature followed by washing 3 times with washing buffer, after which color was developed using the standard TMB method according to manufacturer's protocol for 15 minutes. Absorbance was read at 450 nm.

FcγRI [4] = molecular target: T2, FcγRI; assay: BLI (Octet); remark: listed apart in the source
Procedure: as §1
(§3) For each stradomer in Tables 5-9, the level of canonical FcγR binding, complement C1q binding, and CDC inhibition were determined according to the methods described in Example 1.

FcγRIIb [5] = molecular target: T1, FcγRIIb; assay: BLI (Octet); remark: listed apart in the source
Procedure: as §1, §3

C1q [6] = molecular target: T3, C1q; assay: ELISA on coated C1q; remark: listed apart in the source
Procedure: as §2, §3

T2 sequence (P12314 16-288 limits assumed): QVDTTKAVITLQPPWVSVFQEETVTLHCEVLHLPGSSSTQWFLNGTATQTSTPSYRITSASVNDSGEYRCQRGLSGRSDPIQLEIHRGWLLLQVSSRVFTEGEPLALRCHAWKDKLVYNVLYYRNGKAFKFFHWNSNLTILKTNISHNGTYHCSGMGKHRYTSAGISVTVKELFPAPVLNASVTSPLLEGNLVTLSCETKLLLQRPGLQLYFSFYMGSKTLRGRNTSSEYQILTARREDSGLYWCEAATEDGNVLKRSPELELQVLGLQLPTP
T3 sequence (P02745 23-245 limits assumed, chain 1 of 3): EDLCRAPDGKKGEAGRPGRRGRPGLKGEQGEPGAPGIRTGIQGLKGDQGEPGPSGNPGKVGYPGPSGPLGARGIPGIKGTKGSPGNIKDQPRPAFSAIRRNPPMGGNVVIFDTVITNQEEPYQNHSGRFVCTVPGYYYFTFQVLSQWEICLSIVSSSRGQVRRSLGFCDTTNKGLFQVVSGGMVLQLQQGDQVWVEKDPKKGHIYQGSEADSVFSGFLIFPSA
T3 sequence (P02746 28-253 limits assumed, chain 2 of 3): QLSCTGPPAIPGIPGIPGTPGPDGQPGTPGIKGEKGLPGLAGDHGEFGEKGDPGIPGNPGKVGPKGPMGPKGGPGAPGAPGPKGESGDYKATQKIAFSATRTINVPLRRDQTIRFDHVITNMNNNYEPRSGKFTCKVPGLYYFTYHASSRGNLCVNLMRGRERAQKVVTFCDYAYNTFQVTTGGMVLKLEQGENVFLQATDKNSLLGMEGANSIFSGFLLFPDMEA
T3 sequence (P02747 29-245 limits assumed, chain 3 of 3): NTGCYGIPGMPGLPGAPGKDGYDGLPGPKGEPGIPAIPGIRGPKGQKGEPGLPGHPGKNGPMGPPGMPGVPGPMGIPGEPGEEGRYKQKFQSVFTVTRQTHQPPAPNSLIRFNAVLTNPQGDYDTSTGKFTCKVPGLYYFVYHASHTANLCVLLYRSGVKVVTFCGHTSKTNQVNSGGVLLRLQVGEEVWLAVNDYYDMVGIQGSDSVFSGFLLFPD

| Binder | binding result (FcγRI [1]) | binding result (FcγRIIb [2]) | binding result (C1q [3]) | binding result (FcγRI [4]) | binding result (FcγRIIb [5]) | binding result (C1q [6]) |
| --- | --- | --- | --- | --- | --- | --- |
| G1003 (Fc fusion, G019 background, S267E/H268F/S324T; leader 1-20 cleaved) ERKCCVECPPCPEPKSCDKTHTCPPCPAPELLGGPSVFLFPPKPKDTLMISRTPEVTCVVVDVEFEDPEVKFNWYVDGVEVHNAKTKPREEQYNSTYRVVSVLTVLHQDWLNGKEYKCKVTNKALPAPIEKTISKAKGQPREPQVYTLPPSREEMTKNQVSLTCLVKGFYPSDIAVEWESNGQPENNYKTTPPVLDSDGSFFLYSKLTVDKSRWQQGNVFSCSVMHEALHNHYTQKSLSLSPGK | binds | binds | binds | – | – | – |
| G1049 (Fc fusion, G019 background, S267E/H268F/S324T/L328F; leader 1-20 cleaved) ERKCCVECPPCPEPKSCDKTHTCPPCPAPELLGGPSVFLFPPKPKDTLMISRTPEVTCVVVDVEFEDPEVKFNWYVDGVEVHNAKTKPREEQYNSTYRVVSVLTVLHQDWLNGKEYKCKVTNKAFPAPIEKTISKAKGQPREPQVYTLPPSRDELTKNQVSLTCLVKGFYPSDIAVEWESNGQPENNYKTTPPVLDSDGSFFLYSKLTVDKSRWQQGNVFSCSVMHEALHNHYTQKSLSLSPGK | binds | binds | binds | – | – | – |
| G1109 (Fc fusion, G045c background, E233P/S267E/H268F/S324T; leader 1-20 cleaved) EPKSCDKTHTCPPCPAPPLLGGPSVFLFPPKPKDTLMISRTPEVTCVVVDVEFEDPEVKFNWYVDGVEVHNAKTKPREEQYNSTYRVVSVLTVLHQDWLNGKEYKCKVTNKALPAPIEKTISKAKGQPREPQVYTLPPSRDELTKNQVSLTCLVKGFYPSDIAVEWESNGQPENNYKTTPPVLDSDGSFFLYSKLTVDKSRWQQGNVFSCSVMHEALHNHYTQKSLSLSPGKERKCCVECPPCP | – | – | – | binds | binds | binds |
| G997 (Fc fusion, G045c background, S267E/H268F/S324T; leader 1-20 cleaved) EPKSCDKTHTCPPCPAPELLGGPSVFLFPPKPKDTLMISRTPEVTCVVVDVEFEDPEVKFNWYVDGVEVHNAKTKPREEQYNSTYRVVSVLTVLHQDWLNGKEYKCKVTNKALPAPIEKTISKAKGQPREPQVYTLPPSRDELTKNQVSLTCLVKGFYPSDIAVEWESNGQPENNYKTTPPVLDSDGSFFLYSKLTVDKSRWQQGNVFSCSVMHEALHNHYTQKSLSLSPGKERKCCVECPPCP | binds | binds | binds | – | – | – |
| G1132 (Fc fusion, G045c background, S267R/H268F/S324T/N297A; leader 1-20 cleaved) EPKSCDKTHTCPPCPAPELLGGPSVFLFPPKPKDTLMISRTPEVTCVVVDVRFEDPEVKFNWYVDGVEVHNAKTKPREEQYASTYRVVSVLTVLHQDWLNGKEYKCKVTNKALPAPIEKTISKAKGQPREPQVYTLPPSRDELTKNQVSLTCLVKGFYPSDIAVEWESNGQPENNYKTTPPVLDSDGSFFLYSKLTVDKSRWQQGNVFSCSVMHEALHNHYTQKSLSLSPGKERKCCVECPPCP | – | – | – | binds | – | binds |
| G1123 (Fc fusion, G045c background, E233P/G236Q/S267R/H268F/S324T; leader 1-20 cleaved) EPKSCDKTHTCPPCPAPPLLQGPSVFLFPPKPKDTLMISRTPEVTCVVVDVRFEDPEVKFNWYVDGVEVHNAKTKPREEQYNSTYRVVSVLTVLHQDWLNGKEYKCKVTNKALPAPIEKTISKAKGQPREPQVYTLPPSRDELTKNQVSLTCLVKGFYPSDIAVEWESNGQPENNYKTTPPVLDSDGSFFLYSKLTVDKSRWQQGNVFSCSVMHEALHNHYTQKSLSLSPGKERKCCVECPPCP | – | – | – | binds | – | binds |
| G1093 (Fc fusion, G045c background, S267K/H268F/S324T/T299A; leader 1-20 cleaved) EPKSCDKTHTCPPCPAPELLGGPSVFLFPPKPKDTLMISRTPEVTCVVVDVKFEDPEVKFNWYVDGVEVHNAKTKPREEQYNSAYRVVSVLTVLHQDWLNGKEYKCKVTNKALPAPIEKTISKAKGQPREPQVYTLPPSRDELTKNQVSLTCLVKGFYPSDIAVEWESNGQPENNYKTTPPVLDSDGSFFLYSKLTVDKSRWQQGNVFSCSVMHEALHNHYTQKSLSLSPGKERKCCVECPPCP | – | – | – | binds | – | binds |
| G1096 (Fc fusion, G045c background, S267R/H268F/S324T/T299A; leader 1-20 cleaved) EPKSCDKTHTCPPCPAPELLGGPSVFLFPPKPKDTLMISRTPEVTCVVVDVRFEDPEVKFNWYVDGVEVHNAKTKPREEQYNSAYRVVSVLTVLHQDWLNGKEYKCKVTNKALPAPIEKTISKAKGQPREPQVYTLPPSRDELTKNQVSLTCLVKGFYPSDIAVEWESNGQPENNYKTTPPVLDSDGSFFLYSKLTVDKSRWQQGNVFSCSVMHEALHNHYTQKSLSLSPGKERKCCVECPPCP | – | – | – | binds | – | binds |
| G1070 (Fc fusion, G045c background, S267K/H268F/S324T/N297A; leader 1-20 cleaved) EPKSCDKTHTCPPCPAPELLGGPSVFLFPPKPKDTLMISRTPEVTCVVVDVKFEDPEVKFNWYVDGVEVHNAKTKPREEQYASTYRVVSVLTVLHQDWLNGKEYKCKVTNKALPAPIEKTISKAKGQPREPQVYTLPPSRDELTKNQVSLTCLVKGFYPSDIAVEWESNGQPENNYKTTPPVLDSDGSFFLYSKLTVDKSRWQQGNVFSCSVMHEALHNHYTQKSLSLSPGKERKCCVECPPCP | – | – | – | binds | – | binds |
| G1032 (Fc fusion, G045c background, L234A/L235A/S267E/H268F/S324T; leader 1-20 cleaved) EPKSCDKTHTCPPCPAPEAAGGPSVFLFPPKPKDTLMISRTPEVTCVVVDVEFEDPEVKFNWYVDGVEVHNAKTKPREEQYNSTYRVVSVLTVLHQDWLNGKEYKCKVTNKALPAPIEKTISKAKGQPREPQVYTLPPSRDELTKNQVSLTCLVKGFYPSDIAVEWESNGQPENNYKTTPPVLDSDGSFFLYSKLTVDKSRWQQGNVFSCSVMHEALHNHYTQKSLSLSPGKERKCCVECPPCP | binds | binds | binds | – | – | – |
| G1084 (Fc fusion, G045c background, E233P/S267K/H268F/S324T; leader 1-20 cleaved) EPKSCDKTHTCPPCPAPPLLGGPSVFLFPPKPKDTLMISRTPEVTCVVVDVKFEDPEVKFNWYVDGVEVHNAKTKPREEQYNSTYRVVSVLTVLHQDWLNGKEYKCKVTNKALPAPIEKTISKAKGQPREPQVYTLPPSRDELTKNQVSLTCLVKGFYPSDIAVEWESNGQPENNYKTTPPVLDSDGSFFLYSKLTVDKSRWQQGNVFSCSVMHEALHNHYTQKSLSLSPGKERKCCVECPPCP | – | – | – | binds | – | binds |
| G1100 (Fc fusion, G045c background, E233P/S267R/H268F/S324T; leader 1-20 cleaved) EPKSCDKTHTCPPCPAPPLLGGPSVFLFPPKPKDTLMISRTPEVTCVVVDVRFEDPEVKFNWYVDGVEVHNAKTKPREEQYNSTYRVVSVLTVLHQDWLNGKEYKCKVTNKALPAPIEKTISKAKGQPREPQVYTLPPSRDELTKNQVSLTCLVKGFYPSDIAVEWESNGQPENNYKTTPPVLDSDGSFFLYSKLTVDKSRWQQGNVFSCSVMHEALHNHYTQKSLSLSPGKERKCCVECPPCP | – | – | – | binds | – | binds |
| G1112 (Fc fusion, G045c background, E233P/G236R/S267R/H268F/S324T; leader 1-20 cleaved) EPKSCDKTHTCPPCPAPPLLRGPSVFLFPPKPKDTLMISRTPEVTCVVVDVRFEDPEVKFNWYVDGVEVHNAKTKPREEQYNSTYRVVSVLTVLHQDWLNGKEYKCKVTNKALPAPIEKTISKAKGQPREPQVYTLPPSRDELTKNQVSLTCLVKGFYPSDIAVEWESNGQPENNYKTTPPVLDSDGSFFLYSKLTVDKSRWQQGNVFSCSVMHEALHNHYTQKSLSLSPGKERKCCVECPPCP | – | – | – | binds | – | binds |
| G1119 (Fc fusion, G045c background, E233P/G236R/S267K/H268F/S324T; leader 1-20 cleaved) EPKSCDKTHTCPPCPAPPLLRGPSVFLFPPKPKDTLMISRTPEVTCVVVDVKFEDPEVKFNWYVDGVEVHNAKTKPREEQYNSTYRVVSVLTVLHQDWLNGKEYKCKVTNKALPAPIEKTISKAKGQPREPQVYTLPPSRDELTKNQVSLTCLVKGFYPSDIAVEWESNGQPENNYKTTPPVLDSDGSFFLYSKLTVDKSRWQQGNVFSCSVMHEALHNHYTQKSLSLSPGKERKCCVECPPCP | – | – | – | binds | – | binds |
| G1116 (Fc fusion, G045c background, E233P/G236H/S267K/H268F/S324T; leader 1-20 cleaved) EPKSCDKTHTCPPCPAPPLLHGPSVFLFPPKPKDTLMISRTPEVTCVVVDVKFEDPEVKFNWYVDGVEVHNAKTKPREEQYNSTYRVVSVLTVLHQDWLNGKEYKCKVTNKALPAPIEKTISKAKGQPREPQVYTLPPSRDELTKNQVSLTCLVKGFYPSDIAVEWESNGQPENNYKTTPPVLDSDGSFFLYSKLTVDKSRWQQGNVFSCSVMHEALHNHYTQKSLSLSPGKERKCCVECPPCP | – | – | – | binds | – | binds |
